Assay results as given in paper PMC5913336, “True equilibrium measurement of transcription factor-DNA binding affinities using automated polarization microscopy”.

Experiments:
Bicoid DBD-GST (Bcd) [1] = molecular target: T1, Bicoid DBD-GST (Bcd) (UniProt P09081 83-170); assay: competitive fluorescence anisotropy (HiP-FA); mean of replicates 3.961, 3.634; HiP-FA: 33 mM phosphate pH 7.0, 90 mM NaCl, 0.01% Tween 20, 0.1 mM DTT, 0.5% agarose; conventional titration and EMSA: 20 mM Tris-acetate pH 7.0, 50 nM (sic) NaCl, 0.01% Tween-20, 0.1 mM DTT; conditions: protein: recombinant; tags: N-terminal GST; blunt, G:G mismatch at position 6
T1 sequence: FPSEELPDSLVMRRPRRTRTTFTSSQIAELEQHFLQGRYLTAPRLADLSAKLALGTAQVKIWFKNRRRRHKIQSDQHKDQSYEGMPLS

Bicoid DBD-GST (Bcd) [2] = molecular target: T1, Bicoid DBD-GST (Bcd); assay: competitive fluorescence anisotropy (HiP-FA); mean of replicates 5.163, 4.995; HiP-FA: 33 mM phosphate pH 7.0, 90 mM NaCl, 0.01% Tween 20, 0.1 mM DTT, 0.5% agarose; conventional titration and EMSA: 20 mM Tris-acetate pH 7.0, 50 nM (sic) NaCl, 0.01% Tween-20, 0.1 mM DTT; conditions: protein: recombinant; tags: N-terminal GST; blunt, G:G mismatch at position 6
Bicoid DBD-GST (Bcd) [3] = molecular target: T1, Bicoid DBD-GST (Bcd); assay: competitive fluorescence anisotropy (HiP-FA); mean of replicates 5.027, 4.3975; HiP-FA: 33 mM phosphate pH 7.0, 90 mM NaCl, 0.01% Tween 20, 0.1 mM DTT, 0.5% agarose; conventional titration and EMSA: 20 mM Tris-acetate pH 7.0, 50 nM (sic) NaCl, 0.01% Tween-20, 0.1 mM DTT; conditions: protein: recombinant; tags: N-terminal GST; blunt, G:G mismatch at position 6
Bicoid DBD-GST (Bcd) [4] = molecular target: T1, Bicoid DBD-GST (Bcd); assay: competitive fluorescence anisotropy (HiP-FA); mean of replicates 2.816, 2.505; HiP-FA: 33 mM phosphate pH 7.0, 90 mM NaCl, 0.01% Tween 20, 0.1 mM DTT, 0.5% agarose; conventional titration and EMSA: 20 mM Tris-acetate pH 7.0, 50 nM (sic) NaCl, 0.01% Tween-20, 0.1 mM DTT; conditions: protein: recombinant; tags: N-terminal GST; blunt, G:G mismatch at position 6
Bicoid DBD-GST (Bcd) [5] = molecular target: T1, Bicoid DBD-GST (Bcd); assay: competitive fluorescence anisotropy (HiP-FA); mean of replicates 3.751, 3.7605; HiP-FA: 33 mM phosphate pH 7.0, 90 mM NaCl, 0.01% Tween 20, 0.1 mM DTT, 0.5% agarose; conventional titration and EMSA: 20 mM Tris-acetate pH 7.0, 50 nM (sic) NaCl, 0.01% Tween-20, 0.1 mM DTT; conditions: protein: recombinant; tags: N-terminal GST; blunt, G:G mismatch at position 6
Bicoid DBD-GST (Bcd) [6] = molecular target: T1, Bicoid DBD-GST (Bcd); assay: competitive fluorescence anisotropy (HiP-FA); mean of replicates 4.889, 5.1445; HiP-FA: 33 mM phosphate pH 7.0, 90 mM NaCl, 0.01% Tween 20, 0.1 mM DTT, 0.5% agarose; conventional titration and EMSA: 20 mM Tris-acetate pH 7.0, 50 nM (sic) NaCl, 0.01% Tween-20, 0.1 mM DTT; conditions: protein: recombinant; tags: N-terminal GST; blunt, C:C mismatch at position 6 as printed
Bicoid DBD-GST (Bcd) [7] = molecular target: T1, Bicoid DBD-GST (Bcd); assay: competitive fluorescence anisotropy (HiP-FA); mean of replicates 6.544, 6.784; HiP-FA: 33 mM phosphate pH 7.0, 90 mM NaCl, 0.01% Tween 20, 0.1 mM DTT, 0.5% agarose; conventional titration and EMSA: 20 mM Tris-acetate pH 7.0, 50 nM (sic) NaCl, 0.01% Tween-20, 0.1 mM DTT; conditions: protein: recombinant; tags: N-terminal GST; blunt
Bicoid DBD-GST (Bcd) [8] = molecular target: T1, Bicoid DBD-GST (Bcd); assay: competitive fluorescence anisotropy (HiP-FA); mean of replicates 6.092, 5.6175; HiP-FA: 33 mM phosphate pH 7.0, 90 mM NaCl, 0.01% Tween 20, 0.1 mM DTT, 0.5% agarose; conventional titration and EMSA: 20 mM Tris-acetate pH 7.0, 50 nM (sic) NaCl, 0.01% Tween-20, 0.1 mM DTT; conditions: protein: recombinant; tags: N-terminal GST; blunt
Bicoid DBD-GST (Bcd) [9] = molecular target: T1, Bicoid DBD-GST (Bcd); assay: competitive fluorescence anisotropy (HiP-FA); mean of replicates 2.884, 2.6855; HiP-FA: 33 mM phosphate pH 7.0, 90 mM NaCl, 0.01% Tween 20, 0.1 mM DTT, 0.5% agarose; conventional titration and EMSA: 20 mM Tris-acetate pH 7.0, 50 nM (sic) NaCl, 0.01% Tween-20, 0.1 mM DTT; conditions: protein: recombinant; tags: N-terminal GST; blunt, G:G mismatch at position 6
Bcd homeodomain [10] = molecular target: T2, Bcd homeodomain (Drosophila melanogaster, UniProt P09081-2 77-166); assay: EMSA; 20 mM Tris-acetate pH 7.0, 50 "nM" NaCl as printed (probably mM), 0.01% Tween 20, 0.1 mM DTT, 10% glycerol; room temperature; 4 nM probe; conditions: tags: N-GST (pGEX-6P-1, kept); label: Cy3
T2 sequence: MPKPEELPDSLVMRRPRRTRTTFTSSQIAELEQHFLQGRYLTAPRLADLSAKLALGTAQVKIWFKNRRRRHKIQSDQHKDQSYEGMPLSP

Bcd homeodomain [11] = molecular target: T2, Bcd homeodomain; assay: FP; binding buffer, no gel; conditions: tags: N-GST (pGEX-6P-1, kept); label: 5' Cy5 on strand 1

B1: Bcd competitor 31 (T11C) (dsDNA)
DNA 1: TCGACGGTAATCCCCA
DNA 2: TGGGGATTACGGTCGA
B1 gave a Kd (Bicoid DBD-GST (Bcd) [1]) of 3.8 nM.

B2: Bcd competitor 32 (T11G) (dsDNA)
DNA 1: TCGACGGTAATCCCGA
DNA 2: TCGGGATTACGGTCGA
B2 was tested, and the Kd (Bicoid DBD-GST (Bcd) [2]) was 5.08 nM.

B3: Bcd competitor 33 (T11A) (dsDNA)
DNA 1: TCGACGGTAATCCCAA
DNA 2: TTGGGATTACGGTCGA
B3 was tested, and the Kd (Bicoid DBD-GST (Bcd) [3]) was 4.71 nM.

B4: Bcd competitor 2 (C1T) (dsDNA)
DNA 1: TCGATGGTAATCCCTA
DNA 2: TAGGGATTACGATCGA
B4 gave a Kd (Bicoid DBD-GST (Bcd) [4]) of 2.66 nM.

B5: Bcd competitor 3 (C1A) (dsDNA)
DNA 1: TCGAAGGTAATCCCTA
DNA 2: TAGGGATTACGTTCGA
Binder B5 has a Kd (Bicoid DBD-GST (Bcd) [5]) of 3.76 nM.

B6: Bcd competitor 4 (G2C) (dsDNA)
DNA 1: TCGACCGTAATCCCTA
DNA 2: TAGGGATTACCGTCGA
B6 showed a Kd (Bicoid DBD-GST (Bcd) [6]) of 5.02 nM.

B7: Bcd competitor 5 (G2T) (dsDNA)
DNA 1: TCGACTGTAATCCCTA
DNA 2: TAGGGATTACAGTCGA
In the case of B7, the Kd (Bicoid DBD-GST (Bcd) [7]) is reported as 6.66 nM.

B8: Bcd competitor 6 (G2A) (dsDNA)
DNA 1: TCGACAGTAATCCCTA
DNA 2: TAGGGATTACTGTCGA
B8 was tested, and the Kd (Bicoid DBD-GST (Bcd) [8]) was 5.86 nM.

B9: Bcd competitor 7 (G3C) (dsDNA)
DNA 1: TCGACGCTAATCCCTA
DNA 2: TAGGGATTAGGGTCGA
B9 was tested, and the Kd (Bicoid DBD-GST (Bcd) [9]) was 2.79 nM.

B10: Bcd EMSA probe (dsDNA)
DNA 1: TCGACCGTAATCCCTA
DNA 2: TAGGGATTACGGTCGA
For B10, the Kd (Bcd homeodomain [10]) was 1.8 ± 0.2 nM.

B11: Bcd Cy5 reference (dsDNA)
DNA 1: TCGACGCTAAGCTGTA
DNA 2: TACAGCTTAGCGTCGA
B11 showed a koff (Bcd homeodomain [11]) of 0.41 s⁻¹.
